Assay results reported in patent US6767887.

Biological target: human neutral endopeptidase 24.11 (human) (UniProt P08473)
Assay: cell-based or functional assay

In the case of “GLP-1-(7-36)-NH2 (from UniProt P01275 98-127) (peptide)”, the Degradation rate (mM/100 ng/ml NEP24.11/min) was 0.0586.
